Measured values reported in the RNAGym collection of RNA variant scans (doi:10.7554/elife.80360).

B1: Hammerhead Ribozyme (parent)
chain: ACCGGAUGUGCUUUCCGGUCUGAUGAGUCCGUGAGGACGAAACAG

Variants of: B1
Test: self-cleavage, relative activity (ratio to wild type); higher = more cleavage; co-transcriptional

Row | Variant | self-cleavage
1 | ACCGGAUGUGCUUUCCGGUGUGAUGAGUCCGAGAGGACGAAACAG | 0.305
2 | ACCGGAUGUGCUUUCCGGUGUGAUGAGUCCGCGAGGACGAAACAG | 0.325
3 | ACCGGAUGUGCUUUCCGGUGUGAUGAGUCCGGGAGGACGAAACAG | 0.28
4 | ACCGGAUGUGCUUUCCGGUGUGAUGAGUCCGUGAGUACGAAACAG | 0.305
5 | ACCGGAUGUGCUUUCCGGUGUGAUGAGUCCGUGAGCACGAAACAG | 0.274
6 | ACCGGAUGUGCUUUCCGGUGUGAUGAGUCCGUGAGAACGAAACAG | 0.31
7 | ACCGGAUGUGCUUUCCGGUUUGAUGAGUCCGUGAGGACGAAACAG | 0.697
8 | ACCGGAUGUGCUUUCCGGUGUGAUGAUUCCGUGAGGACGAAACAG | 0.265
9 | ACCGGAUGUGCUUUCCGGUGUGAUGAAUCCGUGAGGACGAAACAG | 0.381
10 | ACCGGAUGUGCUUUCCGGUGUGAUGACUCCGUGAGGACGAAACAG | 0.252
11 | ACCGGAUGUGCUUUCCGGUGUGAUGAGUCUGUGAGGACGAAACAG | 0.255
12 | ACCGGAUGUGCUUUCCGGUGUGAUGAGUCCAUGAGGACGAAACAG | 0.319
13 | ACCGGAUGUGCUUUCCGGUGUGAUGAGUCCCUGAGGACGAAACAG | 0.321
14 | ACCGGAUGUGCUUUCCGGUGUGAUGAGUCCUUGAGGACGAAACAG | 0.356
15 | ACCGGAUGUGCUUUCCGGUUUGAUGAGUCCGUGAGGCCGAAACAG | 0.549
16 | ACCGGAUGUGCUUUCCGGUGUGACGAGUCCGUGAGGACGAAACAG | 0.302
17 | ACCGGAUGUGCUUUCCGGUGUGAGGAGUCCGUGAGGACGAAACAG | 0.353
18 | ACCGGAUGUGCUUUCCGGUGUGAAGAGUCCGUGAGGACGAAACAG | 0.399
19 | ACCGGAUGUGCUUUCCGGUGUGAUGAGGCCGUGAGGACGAAACAG | 0.323

Row | Variant | self-cleavage
20 | ACCGGAUGUGCUUUCCGGUGUGAUGAGACCGUGAGGACGAAACAG | 0.268
21 | ACCGGAUGUGCUUUCCGGUGUGAUGAGCCCGUGAGGACGAAACAG | 0.261
22 | ACCGGAUGUGCUUUCCGGUGUGAUGAGUCCGUGAGGACGAAACAC | 0.302
23 | ACCGGAUGUGCUUUCCGGUGUGAUGAGUCCGUGAGGACGAAACAA | 0.356
24 | ACCGGAUGUGCUUUCCGGUGUGAUGAGUCCGUGAGGACGAAACAU | 0.316
25 | ACCGGAUGUGCUUUCCGGUGUCAUGAGUCCGUGAGGACGAAACAG | 0.43
26 | ACCGGAUGUGCUUUCCGGUGUAAUGAGUCCGUGAGGACGAAACAG | 0.252
27 | ACCGGAUGUGCUUUCCGGUGUUAUGAGUCCGUGAGGACGAAACAG | 0.343
28 | ACCGGAUGUGCUUUCCGGUGUGAUCAGUCCGUGAGGACGAAACAG | 0.503
29 | ACCGGAUGUGCUUUCCGGUGUGAUAAGUCCGUGAGGACGAAACAG | 0.314
30 | ACCGGAUGUGCUUUCCGGUGUGAUUAGUCCGUGAGGACGAAACAG | 0.313
31 | ACCGGAUGUGCUUUCCGGUGUGAUGAGUCCGUGAGGAGGAAACAG | 0.239
32 | ACCGGAUGUGCUUUCCGGUGUGAUGAGUCCGUGAGGAAGAAACAG | 0.241
33 | ACCGGAUGUGCUUUCCGGUGUGAUGAGUCCGUGAGGAUGAAACAG | 0.38
34 | ACCGGAUGUGCUUUCCGGUGUGAUGAGUCCGUGACGACGAAACAG | 0.361
35 | ACCGGAUGUGCUUUCCGGUGUGAUGAGUCCGUGAAGACGAAACAG | 0.287
36 | ACCGGAUGUGCUUUCCGGUGUGAUGAGUCCGUGAUGACGAAACAG | 0.353
37 | ACCGGAUGUGCUUUCCGGUUUGAUGCGUCCGUGAGGACGAAACAG | 0.321
38 | ACCGGAUGUGCUUUCCGGUUUGAUGUGUCCGUGAGGACGAAACAG | 0.411

Row | Variant | self-cleavage
39 | ACCGGAUGUGCUUUCCGGUUUGAUGGGUCCGUGAGGACGAAACAG | 0.262
40 | ACCGGAUGUGCUUUCCGGUUUGUUGAGUCCGUGAGGACGAAACAG | 0.279
41 | ACCGGAUGUGCUUUCCGGUUUGCUGAGUCCGUGAGGACGAAACAG | 0.353
42 | ACCGGAUGUGCUUUCCGGUUUGGUGAGUCCGUGAGGACGAAACAG | 0.356
43 | ACCGGAUGUGCUUUCCGGUUUGAUGAGUCCGUGUGGACGAAACAG | 0.356
44 | ACCGGAUGUGCUUUCCGGUUUGAUGAGUCCGUGCGGACGAAACAG | 0.369
45 | ACCGGAUGUGCUUUCCGGUUUGAUGAGUCCGUGGGGACGAAACAG | 0.407
46 | ACCGGAUGUGCUUUCCGGUGUGAUGAGUCCGUCAGGACGAAACAG | 0.327
47 | ACCGGAUGUGCUUUCCGGUGUGAUGAGUCCGUUAGGACGAAACAG | 0.367
48 | ACCGGAUGUGCUUUCCGGUGUGAUGAGUCCGUAAGGACGAAACAG | 0.333
49 | ACCGGAUGUGCUUUCCGGUGUGAUGAGUCCGUGAGGACGAAAUAG | 0.298
50 | ACCGGAUGUGCUUUCCGGUGUGAUGAGUCCGUGAGGACGAAAGAG | 0.432
51 | ACCGGAUGUGCUUUCCGGUGUGAUGAGUCCGUGAGGACGAAAAAG | 0.353
52 | ACCGGAUGUGCUUUCCGGUGUGAUGAGUCCGUGAGGACAAAACAG | 0.34
53 | ACCGGAUGUGCUUUCCGGUGUGAUGAGUCCGUGAGGACCAAACAG | 0.321
54 | ACCGGAUGUGCUUUCCGGUGUGAUGAGUCCGUGAGGACUAAACAG | 0.316
55 | ACCGGAUGUGCUUUCCGGUGCGAUGAGUCCGUGAGGACGAAACAG | 0.305
56 | ACCGGAUGUGCUUUCCGGUGAGAUGAGUCCGUGAGGACGAAACAG | 0.286
57 | ACCGGAUGUGCUUUCCGGUGGGAUGAGUCCGUGAGGACGAAACAG | 0.376
